Values belong to the binder of their own block, whether it stands above or below them.
Columns and labels:
full-length human tau [1] = biological target: T1, full-length human tau (human, UniProt P10636 2-757); test: SPR (Biacore S200), single-cycle, biotinylated antibody captured on streptavidin chip, tau as analyte, steady state affinity fit; IgG1 format
T1 construct: also called tau441; human tau isoform 2
Protocol: (§1) (C) Single-cycle kinetics of AB1 to full-length human tau was determined using surface plasmon resonance. […] (D) The molecular weight (MW), binding affinity (KD) and activity for each of the AB1 antibody formats.
(§2) Surface plasmon resonance measurements were conducted at the Monash Fragment Platform, Monash University, using the Biacore S200 biosensor (GE Healthcare). Biotinylated AB1 was captured on a streptavidin-coated CM5 chip. For biotinylation, AB1 IgG1 (29.5 μM), AB1 IgG2a (32.0 μM), AB1 Fab (22.9 μM) and AB1 scFv (60.4 μM) (in 137 mM NaCl, 2.7 mM KCl, 10 mM Na2HPO4, 1.8 mM KH2PO4) was added in a 1:1 ratio with EZ-link NHS-LC-LC-biotin (Thermo Scientific) and incubated at 25° C. for 1 hr. Antibodies were separated from free-unconjugated biotin using size-exclusion chromatography on a Superdex 200 10/300 GL (GE Healthcare) or Superdex 75 10/300 Increase (GE Healthcare) equilibrated in 137 mM NaCl, 2.7 mM KCl, 12 mM Na2HPO4, 1.8 mM KH2PO4, pH 7.4. Streptavidin was immobilized on the CM5 chip using amine coupling at 37° C. […]

full-length human tau [2] = biological target: T1, full-length human tau; test: SPR (Biacore S200), single-cycle, biotinylated Fab captured on streptavidin chip, tau as analyte, steady state affinity fit; Fab, not IgG
Protocol: as §1, §2

full-length human tau [3] = biological target: T1, full-length human tau; test: SPR (Biacore S200), single-cycle, biotinylated antibody captured on streptavidin chip, tau as analyte, steady state affinity fit; IgG2a format
Protocol: as §1, §2

T1 sequence (P10636 other isoform, or with tags, fused parts or gaps limits assumed): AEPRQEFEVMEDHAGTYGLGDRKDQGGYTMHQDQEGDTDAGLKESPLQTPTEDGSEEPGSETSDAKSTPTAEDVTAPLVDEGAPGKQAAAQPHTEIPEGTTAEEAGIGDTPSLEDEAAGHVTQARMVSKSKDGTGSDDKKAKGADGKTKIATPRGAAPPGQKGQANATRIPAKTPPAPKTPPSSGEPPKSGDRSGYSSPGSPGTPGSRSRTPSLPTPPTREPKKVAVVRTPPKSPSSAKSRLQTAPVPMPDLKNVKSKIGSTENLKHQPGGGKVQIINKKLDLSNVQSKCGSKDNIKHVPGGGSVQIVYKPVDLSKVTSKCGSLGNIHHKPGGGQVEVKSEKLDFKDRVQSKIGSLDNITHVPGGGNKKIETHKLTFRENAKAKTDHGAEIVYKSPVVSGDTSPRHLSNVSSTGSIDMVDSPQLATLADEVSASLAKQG

Kd (full-length human tau [1]): 407 nM
B1: AB1 IgG1 (antibody, V domains shown)
VH: QVQLKQSGPGLVQPSQSLSITCTVSGFSLTSYGVHWVRQSPGKGLEWLGVIWRGGSTDYNAAFMSRLSITKDNSKSQVFFKMNSLQADDTAIYYCAKNTNHRYDGYYAMDYWGQGTSVTVS
VL: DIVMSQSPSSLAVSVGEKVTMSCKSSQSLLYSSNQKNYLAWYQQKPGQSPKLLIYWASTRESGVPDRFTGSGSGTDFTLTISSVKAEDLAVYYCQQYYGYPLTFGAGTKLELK
notes: Expressed in Expi-CHO, about 156 kDa; For SPR it was biotinylated with NHS-LC-LC-biotin and captured on streptavidin; also called full-sized murine IgG1

Kd (full-length human tau [2]): 298 nM
B2: AB1 Fab (Fab, V domains shown)
VH: QVQLKQSGPGLVQPSQSLSITCTVSGFSLTSYGVHWVRQSPGKGLEWLGVIWRGGSTDYNAAFMSRLSITKDNSKSQVFFKMNSLQADDTAIYYCAKNTNHRYDGYYAMDYWGQGTSVTVS
VL: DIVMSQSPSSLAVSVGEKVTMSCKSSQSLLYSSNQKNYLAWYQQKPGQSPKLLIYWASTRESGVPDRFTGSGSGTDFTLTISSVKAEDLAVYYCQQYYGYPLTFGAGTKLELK
notes: Biotinylated and captured on streptavidin for SPR

Kd (full-length human tau [3]): 381 nM
B3: AB1 IgG2a (antibody, V domains shown)
VH: QVQLKQSGPGLVQPSQSLSITCTVSGFSLTSYGVHWVRQSPGKGLEWLGVIWRGGSTDYNAAFMSRLSITKDNSKSQVFFKMNSLQADDTAIYYCAKNTNHRYDGYYAMDYWGQGTSVTVS
VL: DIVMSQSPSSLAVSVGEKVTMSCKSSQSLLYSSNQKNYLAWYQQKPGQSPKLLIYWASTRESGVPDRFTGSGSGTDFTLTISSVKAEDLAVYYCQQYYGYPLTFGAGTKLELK
notes: About 156 kDa; Biotinylated and captured on streptavidin for SPR; also called full-sized murine IgG2a

Reference: patent US20210347869A1 (UNIVERSITY OF QUEENSLAND, published 2021)
